The test system of assay [1] is CML CD34+ cells expressing BCR-ABL1T315I. The experiment in a line: Colony forming assay of primary CML CD34+ cells expressing BCR-ABL1T315I (samples R1, R2). In kind it is cell-based, human. Here is the method:
Mononuclear cells (MNCs) were separated from the peripheral blood of patients with newly diagnosed or therapy-resistant CML with a documented T315I mutation, using Ficoll (Nycomed, Oslo, Norway). Isolation of the CD34^+ fraction was done on an autoMACS Pro (Miltenyi Biotech). […] Cells were infected with lentivirus at a multiplicity of infection (MOI) of 5 for each construct at 24 and 48 hours following harvest (fresh cells) or thaw (frozen cells). Cells were sorted on a BD FACSAria cytometer after 72 h, and GFP-positive cells were returned to culture medium for future experiments. All patients gave their informed consent in accordance with the Declaration of Helsinki, and all studies with human specimens were approved by The University of Utah Institutional Review Board (IRB).
Briefly, lentivirus-infected (GFP^+) cells were isolated by FACS and resuspended in RPMI1640. […] Plates were incubated at 37° C. in a 5% CO2 humidified incubator for 14 days. Colony forming units of granulocyte-macrophage (CFU-GM) were counted on day 14 using an inverted microscope.
All cells were plated with or without the indicated TKI in three or more independent experiments. Plates were incubated at 37° C. in a 5% CO2 humidified incubator. Colonies were counted 7-14 days later in an area of 50 μm2 per dish using an inverted microscope.

The subject of assay [2] is parental Ba/F3 cells. Description: Annexin V/7-AAD apoptosis assay in transfected parental Ba/F3 cells. The class given is cell-based, mouse. As to conditions: 72 h, CCmut3 vs EV. As for the experimental part: For analysis of apoptosis and cell death, cells were pelleted and resuspended in Annexin V-binding buffer (BD Biosciences), stained with anti-Annexin V-APC (BD Biosciences or Life Technologies) and 7-AAD (BD Biosciences or Life Technologies) and analyzed on a BD FACSCanto flow cytometer. In addition to the APC and 7-AAD channels, GFP- and mCherry-positive cells were also recorded.
For analysis of apoptosis and necrotic cell death, cells were pelleted and resuspended in Annexin V-binding buffer (BD Biosciences), stained with anti-Annexin V-APC and 7-AAD (BD Biosciences or Life Technologies) and analyzed on a BD FACSCanto flow cytometer. In addition to the APC and 7-AAD channels, GFP- and mCherry-positive cells were also recorded.

In assay [3] the test system is K562 cells. The experiment in a line: Colony forming assay of transfected K562 cells. In kind it is cell-based, human. The settings on record: for colony formation (transformative ability), in words: construct delivered as a gene by transfection, vs EGFP (and WT) control. Here is the method: (§1) Both EGFP and EGFP-CC^mut3 were transfected into separate groups of cells on day 0. One day following transfection, 1.0×10^6 cells per treatment group were collected and re-suspended in 1.0 mL of PBS. Through serial dilutions, 1.0×10^3 cells in IMDM (Isocove's modified Dulbecco's media) with 2% FBS were seeded into methylcellulose medium in the absence of cytokines (MethoCult H4230 for K562 cells and MethoCult M3234 for p210 and p210-T315I cells) or in the presence of cytokines (MethoCult GF M3434 for parental Ba/F3 cells). Ponatinib was then added in the correct molar amounts (0, 100 pM, 1 nM, or 10 nM) to the methylcellulose medium. Colonies formed were counted after 7 days of incubation. All reagents were purchased from Stem Cell Technologies, Vancouver, BC, Canada. Assay was run three separate times (n=3) in duplicate.
Briefly, K562 or Ba/F3-p210 cells were transfected according to the protocol above. One day following transfection, 1.0×10^6 cells per transfection group were collected and re-suspended in sterile PBS. […] Finally, 1.1 mL of cell/methylcellulose mixture was seeded in duplicate and allowed to grow at 37° C. and 5% CO2 for 7 days. Colony formation was assessed by counting colonies in two 200 μm2 areas on the plate. Experiments were performed once in duplicate (n=1 in duplicate). All kit reagents and media were purchased from Stem Cell Technologies (Vancouver, BC, Canada).

For assay [4], the system named is parental Ba/F3 cells. Description: Colony forming assay of transfected parental Ba/F3 cells. The class given is cell-based, mouse. As to conditions: CCmut3 vs EV. Here is the method: as §1
Following selection of transfected cells by cell sorting, viable cells were enumerated and seeded into methylcellulose as described previously (Dixon, A. S., et al. (2011) J. Biol. Chem. 286, 27751-27760). Briefly, mCherry-positive Ba/F3 cells were re-suspended in IMDM with 2% FBS (Stem Cell Technologies) at a concentration of 10,000 cells/mL. […] Colonies were counted 7 days later in an area of […] per dish. […]

The mark [5] stands for this setting: sample R1 (accelerated phase), lentiviral CCmut3 or 10 nM ponatinib vs EV.

“Also recorded” adds a separate entry of the source.

B1: CCmut3: modified Bcr-Abl coiled-coil domain (residues 1-72) with mutations C38A, K39E, S41R, L45D, E48R, Q60E (protein)
chain: MVDPVGFAEAWKAQFPDSEPPRMELRSVGDIEQELERAEARIRRDEQRVNQERFRMIYLETLLAKEKKSYDR
As to B1, the “colony formation, in words” value in assay [1] (setting [5]) is “even greater sensitivity to transduction with CCmut3”; in assay [1] (sample R1 (accelerated phase), lentiviral CCmut3 or 10 nM ponatinib vs EV, listed as CC^mut3) it was “reduced colony formation to a similar degree”; in assay [1] (sample R2 (blast crisis, after ponatinib failure), lentiviral CCmut3 or ponatinib vs EV) it was “only minimal activity”; in assay [1] (sample R2 (blast crisis, after ponatinib failure), lentiviral CCmut3 or ponatinib vs EV, listed as CC^mut3), “insensitive”; in assay [4], “not affected; also recorded: no effect on parental Ba/F3 controls”; in assay [4] (listed as CC^mut3), “not affected; also recorded: no difference between treatment groups”. Besides, the “reduction of colony formation” value is 76% in assay [1] (setting [5]) and around 25% in assay [1] (sample R2 (blast crisis, after ponatinib failure), lentiviral CCmut3 vs EV). The results for the “apoptosis, in words” value in assay [2] and in assay [2] (listed as CC^mut3) were “no effect on parental Ba/F3 cells; also recorded: no effect on the parental cell line” and “not affected; also recorded: no effect on the parental cells”, respectively. The “colony formation, of EGFP control” value in assay [3] (7 days after seeding, normalized to EGFP control, n=1 in duplicate) was “approximately 20%”. In assay [3] (CC^mut3 alone, no ponatinib, 7 days), the “decrease in the amount of colonies formed compared to EGFP” value is 3 fold. Besides, the figures for the “colony formation (transformative ability), in words” value in assay [3] and in assay [3] (listed as CC^mut3) were “showed inhibitory activity” and “inhibits colony formation; also recorded: significantly greater inhibition”, respectively.

These data come from US10494417B2, “Peptide inhibitors of BCR-ABL oligomerization” (University of Utah Research Foundation, priority 2014, dated 2019).
